The subject of one experiment is MDS BM-MNC. Briefly: Pyroptosis flow cytometry panel, MDS BM-MNC incubated with autologous BM plasma. Type of experiment: cell-based, human. The protocol:
For human samples, treated and untreated BM-MNC were incubated overnight in IMDM, supplemented with 10% autologous BM plasma. Subsequently, cells were harvested, washed twice in 1×PBS, and stained with LIVE/DEAD Violet fluorescent reactive dye according to the manufacturer's protocol (Life Technologies). Cells were resuspended in 1×PBS with 2% BSA, and incubated at room temperature for 15 minutes to block non-specific binding. After washing, cells were stained with 30×FAM-FLICA® Caspase-1 and Caspase-3/7 solution at a ratio of 1:30 for 2 hours at 37° C. Cells were washed and stained for cell surface receptors using CD38:PE-CF594, CD33:BV711, CD34:APC (BD Biosciences), and CD71:PE-Cyanine7 (eBioscience). All antibodies were diluted 1:20, and cells were stained for 30 minutes at 4° C. Cells were washed, resuspended in 1× binding buffer, and stained with Annexin-V:Cy5.5 at a dilution of 1:20 for 15 minutes at room temperature (BD Biosciences). 1× binding buffer was added to a final volume of 400 μL. Sample acquisitions were carried out using a BD LSR II flow cytometer and FACSDiva software (BD Biosciences). Calibration of the flow cytometer was carried out prior to each experiment using Rainbow Mid-Range Fluorescent Particles (BD Biosciences). To establish fluorescence compensation settings, ArC Amine Reactive Compensation Beads were used for LIVE/DEAD Violet staining (Life Technologies), and BD CompBead Plus Anti-Mouse Ig κ/Negative Control (BSA) Compensation Plus Particles were used for surface receptor conjugates (BD Biosciences). Data were analyzed using FlowJo 9.7.5 software (FlowJo, LLC, Ashland, Oreg.).

Another experiment relates to lower-risk MDS BM-MNC. Briefly: qPCR of pyroptosis-related gene expression in lower-risk MDS BM-MNC. Type of experiment: cell-based, human. The settings on record: 24 hours, versus autologous BM plasma alone, n=5. The protocol:
PCR RNA was isolated from BM-MNC using the RNeasy Mini Kit (Qiagen). cDNA was produced using the iScript cDNA Synthesis Kit (Bio-Rad). Sequences for primers can be found in Table 1. GAPDH mRNA was used for transcript normalization. cDNA was amplified using the iQ SYBR Green Supermix and the CFX96 Real-Time PCR Detection System (Bio-Rad). PCR conditions were as follows: 10 minutes at 95° C., followed by 40 cycles of amplification (15 seconds at 95° C. and 1 minute at 60° C.). Relative gene expression was calculated using the […] method.
A general note: In qPCR the cycle at which signal appears reflects the starting amount.

The values below come from patent US10688077B2, “Inflammasome activation in myelodysplastic syndromes” (H. Lee Moffitt Cancer Center and Research Institute, Inc., priority 2015, dated 2020).

B1: CD33-IgG1: S100A9 high-affinity chimeric (CD33-IgG1) decoy receptor (protein)
chain: DPNFWLQVQESVTVQEGLCVLVPCTFFHPIPYYDKNSPVHGYWFREGAIISRDSPVATNKLDQEVQEETQGRFRLLGDPSRNNCSLSIVDARRRDNGSYFFRMERGSTKYSYKSPQLSVHVTDLTHRPKILIPGTLEPGHSKNLTCSVSWACEQGTPPIFSWLSAAPTSLGPRTTHSSVLIITPRPQDHGTNLTCQVKFAGAGVTTERTIQLNVTYVPQNPTTGIFPGDGSGKQETRAGVVH
modifications: left off: a dimerising Fc or GST
In the case of B1, the “reduction of the fraction of pyroptotic cells, maximum lineage-specific change, CD33+ cells” value in the experiment with MDS BM-MNC (CD33+ immature myeloids, 0.5 μg CD33-IgG1 or 0.1 μM IRAK4 inhibitor, 24 hours, autologous BM plasma, n=4) was 68%. For the same molecule, the “reduction of the fraction of pyroptotic cells, maximum lineage-specific change, CD71+ cells” value in the experiment with MDS BM-MNC (CD71+ erythroids, 0.5 μg CD33-IgG1 or 0.1 μM IRAK4 inhibitor, 24 hours, autologous BM plasma, n=4) is reported as 64%. Also, the “fraction of pyroptotic cells across all lineages studied” value in the experiment with MDS BM-MNC (MDS BM-MNC with autologous BM plasma (FIG. 20)) was “marked reduction”. Also, the “reduction of the fraction of pyroptotic cells, maximum lineage-specific change, progenitor cells” value with MDS BM-MNC (progenitor cells (CD34+CD38+), 0.5 μg CD33-IgG1 or 0.1 μM IRAK4 inhibitor, 24 hours, autologous BM plasma, n=4) came out at 23%. The MDSC fraction entry with MDS BM-MNC (short-term treatment) is listed as “significantly reduced”. Further, in the experiment on MDS BM-MNC (stem cells (CD34+CD38-), 0.5 μg CD33-IgG1 or 0.1 μM IRAK4 inhibitor, 24 hours, autologous BM plasma, n=4), the “reduction of the fraction of pyroptotic cells, maximum lineage-specific change, stem cells” value turned out to be 44%. Further, in the experiment with lower-risk MDS BM-MNC, the CASP1 expression result was “reduced”, the CASP3 expression result is given as “markedly reduced”, the IL-1β expression result is “reduced” and the IL-18 expression result is on record as “reduced”. Also, the NLRP3 expression result with lower-risk MDS BM-MNC is “reduced”.
